Assay results: patent publication US20250340857A1 (SEISMIC THERAPEUTIC, published 2025)
Positions count from the first letter of the chain named.

B1: FP167 (Fc fusion)
chain 1: DKTHTCPPCPAPEAAGAPSVFLFPPKPKDTLMISRTPEVTCVVVDVSHEDPEVKFNWYVDGVEVHNAKTKPREEQQNSTYRVVSVLTVLHQDWLNGKEYKCKVSNKALKAPIEKTISKAKGQPREPQVYTLPPSRDELTKNQVSLWCLVKGFYPSDIAVEWESNGQPENNYKTTPPVLDSDGSFFLYSKLTVDKSRWQQGNVFSCSVMHEALHNHYTQKSLSLSPGGSSAPGSSAPGSSAPTALGRRKAEDRIKETLWADGVKIDEKDFEHIKSSHEDYFAVEYGKGSGYYDVNKKMDSEDTALCVGAVVTNMFHWWVDQNRENIEKFKKQDPENNGVMKFEGVKEATVDELNEFYRDNRDNYADQSRFFDLIKKHFGNKALNPEELFELYFNGFYYGSSHRYIEDNEPAQNNLFSKVLENNKLLNPERSYGIDGFSNNVINALKSHKVLGLVYTTPLRYRHIISMWGADIDQDGKVKAIYVTDSDDREITFNDNSKRRIGMIRYDVLVDDNGNIRFTGKGATHKEEGAIYAGLYSLSRGDEVWEDYFKKYPEVQENL
chain 2: DKTHTCPPCPAPEAAGAPSVFLFPPKPKDTLMISRTPEVTCVVVDVSHEDPEVKFNWYVDGVEVHNAKTKPREEQQNSTYRVVSVLTVLHQDWLNGKEYKCKVSNKALKAPIEKTISKAKGQPREPQVYTLPPSRDELTKNQVSLSCAVKGFYPSDIAVEWESNGQPENNYKTTPPVLDSDGSFFLVSKLTVDKSRWQQGNVFSCSVMHEALHNHYTQKSLSLSPG
B2: FP175 (Fc fusion)
chain 1: B1 chain 1 with M208L, N214S, T302S
chain 2: B1 chain 2 with M208L, N214S
B3: FP168 (Fc fusion)
chain 1: B1 chain 1 with M208L, N214S
chain 2: B1 chain 2 with M208L, N214S
B4: FP183 (Fc fusion)
chain 1: DKTHTCPPCPAPEAAGAPSVFLFPPKPKDTLMISRTPEVTCVVVDVSHEDPEVKFNWYVDGVEVHNAKTKPREEQQNSTYRVVSVLTVLHQDWLNGKEYKCKVSNKALKAPIEKTISKAKGQPREPQVYTLPPSRDELTKNQVSLWCLVKGFYPSDIAVEWESNGQPENNYKTTPPVLDSDGSFFLYSKLTVDKSRWQQGNVFSCSVMHEALHNHYTQKSLSLSPGAEEEKAEEEKAEEEKTALGRRKAEDRIKETLWADGVKIDEKDFEHIKSSHEDYFAVEYGKGSGYYDVNKKMDSEDSALCVGAVVTNMFHWWVDQNRENIEKFKKQDPENNGVMKFEGVKEATVDELNEFYRDNRDNYADQSRFFDLIKKHFGNKALNPEELFELYFNGFYYGSSHRYIEDNEPAQNNLFSKVLENNKLLNPERSYGIDGFSNNVINALKSHKVLGLVYTTPLRYRHIISMWGADIDQDGKVKAIYVTDSDDREITFNDNSKRRIGMIRYDVLVDDNGNIRFTGKGATHKEEGAIYAGLYSLSRGDEVWEDYFKKYPEVQENL
chain 2: B1 chain 2
B5: FP179 (Fc fusion)
chain 1: TALGRRKAEDRIKETLWADGVKIDEKDFEHIKSSHEDYFAVEYGKGSGYYDVNKKMDSEDSALCVGAVVTNMFHWWVDQNRENIEKFKKQDPENNGVMKFEGVKEATVDELNEFYRDNRDNYADQSRFFDLIKKHFGNKALNPEELFELYFNGFYYGSSHRYIEDNEPAQNNLFSKVLENNKLLNPERSYGIDGFSNNVINALKSHKVLGLVYTTPLRYRHIISMWGADIDQDGKVKAIYVTDSDDREITFNDNSKRRIGMIRYDVLVDDNGNIRFTGKGATHKEEGAIYAGLYSLSRGDEVWEDYFKKYPEVQENLDKTHTCPPCPAPEAAGAPSVFLFPPKPKDTLMISRTPEVTCVVVDVSHEDPEVKFNWYVDGVEVHNAKTKPREEQQNSTYRVVSVLTVLHQDWLNGKEYKCKVSNKALKAPIEKTISKAKGQPREPQVYTLPPSRDELTKNQVSLWCLVKGFYPSDIAVEWESNGQPENNYKTTPPVLDSDGSFFLYSKLTVDKSRWQQGNVFSCSVMHEALHNHYTQKSLSLSPG
chain 2: B1 chain 2
B6: FP191 (Fc fusion)
chain 1: DKTHTCPPCPAPEAAGAPSVFLFPPKPKDTLMISRTPEVTCVVVDVSHEDPEVKFNWYVDGVEVHNAKTKPREEQQNSTYRVVSVLTVLHQDWLNGKEYKCKVSNKALKAPIEKTISKAKGQPREPQVYTLPPSRDELTKNQVSLWCLVKGFYPSDIAVEWESNGQPENNYKTTPPVLDSDGSFFLYSKLTVDKSRWQQGNVFSCSVMHEALHNHYTQKSLSLSPGAPAPAPAPAPAPAPTALGRRKAEDRIKETLWADGVKIDEKDFEHIKSSHEDYFAVEYGKGSGYYDVNKKMDSEDSALCVGAVVTNMFHWWVDQNRENIEKFKKQDPENNGVMKFEGVKEATVDELNEFYRDNRDNYADQSRFFDLIKKHFGNKALNPEELFELYFNGFYYGSSHRYIEDNEPAQNNLFSKVLENNKLLNPERSYGIDGFSNNVINALKSHKVLGLVYTTPLRYRHIISMWGADIDQDGKVKAIYVTDSDDREITFNDNSKRRIGMIRYDVLVDDNGNIRFTGKGATHKEEGAIYAGLYSLSRGDEVWEDYFKKYPEVQENL
chain 2: B1 chain 2
B7: FP174 (Fc fusion)
chain 1: B1 chain 1 with T302S
chain 2: B1 chain 2
B8: FP184 (Fc fusion)
chain 1: DKTHTCPPCPAPEAAGAPSVFLFPPKPKDTLMISRTPEVTCVVVDVSHEDPEVKFNWYVDGVEVHNAKTKPREEQQNSTYRVVSVLTVLHQDWLNGKEYKCKVSNKALKAPIEKTISKAKGQPREPQVYTLPPSRDELTKNQVSLWCLVKGFYPSDIAVEWESNGQPENNYKTTPPVLDSDGSFFLYSKLTVDKSRWQQGNVFSCSVMHEALHNHYTQKSLSLSPGEAAAKEAAAKEAAAKTALGRRKAEDRIKETLWADGVKIDEKDFEHIKSSHEDYFAVEYGKGSGYYDVNKKMDSEDSALCVGAVVTNMFHWWVDQNRENIEKFKKQDPENNGVMKFEGVKEATVDELNEFYRDNRDNYADQSRFFDLIKKHFGNKALNPEELFELYFNGFYYGSSHRYIEDNEPAQNNLFSKVLENNKLLNPERSYGIDGFSNNVINALKSHKVLGLVYTTPLRYRHIISMWGADIDQDGKVKAIYVTDSDDREITFNDNSKRRIGMIRYDVLVDDNGNIRFTGKGATHKEEGAIYAGLYSLSRGDEVWEDYFKKYPEVQENL
chain 2: B1 chain 2
B9: FP13 (Fc fusion)
chain: DKTHTCPPCPAPEAAGAPSVFLFPPKPKDTLMISRTPEVTCVVVDVSHEDPEVKFNWYVDGVEVHNAKTKPREEQQNSTYRVVSVLTVLHQDWLNGKEYKCKVSNKALKAPIEKTISKAKGQPREPQVYTLPPSRDELTKNQVSLTCLVKGFYPSDIAVEWESNGQPENNYKTTPPVLDSDGSFFLYSKLTVDKSRWQQGNVFSCSVMHEALHNHYTQKSLSLSPGGGGSGGGGSGGGGSTALGRRKAEDRIKETLWADGVKIDEKDFEHIKSSHEDYFAVEYGKGSGYYDVNKKMDSEDSALCVGAVVTNMFHWWVDQNRENIEKFKKQDPENNGVMKFEGVKEATVDELNHFYRDNRDNYADQSRFFDLIKKHFGNKALNPEELFELYFNGFYYGSSHRYIEDNEPAQNNLFSKVLENNKLLNPERSYGIDGFSNNVINALKSHKVLGLVHTTPLRYRHIISMWGADIDQDGKVKAIYVTDSDDREITFNDNSKRRIGMIRYDVLVDDNGNIRFTGKGATHKEEGAIYAGLYSLSRGDEVWEDYFKKYPEVQENL
B10: FP170 (Fc fusion)
chain 1: B9 chain with T146W, H353E, H453Y
chain 2: B1 chain 2
B11: FP171 (Fc fusion)
chain 1: B9 chain with T146W, M208L, N214S, H353E, H453Y
chain 2: B1 chain 2 with M208L, N214S
B12: FP178 (Fc fusion)
chain: B5 chain 1 with W463T

Each binder was assayed against Human IgE antibody (human) (assay: cell-based or functional assay).

Compared with B1, B2 is 2.6-fold higher in “EC50 MSD IgE” value: 721 pM for the first, 1880 pM for the second.

B3 and B4 are within 1.5-fold of each other in “EC50 MSD IgE” value: 637 pM for the first, 548 pM for the second.

B5 and B6 are within 1.5-fold of each other in “EC50 MSD IgE” value: 424 pM for the first, 556 pM for the second.

B7 and B8 are within 1.5-fold of each other in “EC50 MSD IgE” value: 511 pM for the first, 475 pM for the second.

B10 and B11 are within 1.5-fold of each other in “EC50 MSD IgE” value: 1020 pM for the first, 1350 pM for the second.

For B12, the “EC50 MSD IgE” value was 317 pM.

Going from B2 to B3, the “EC50 CE-SDS IgE” value falls from 0.179 µM to 0.0176 µM (10-fold).

B4 and B5 are within 1.5-fold of each other in “EC50 CE-SDS IgE” value: 0.00763 µM for the first, 0.00664 µM for the second.

Compared with B6, B7 is 8.1-fold higher in “EC50 CE-SDS IgE” value: 0.00151 µM for the first, 0.0122 µM for the second.

First: B9
Second: B10
The “EC50 CE-SDS IgE” value of the first is 2.2-fold higher: 0.0319 µM for the first, 0.0146 µM for the second.

Compared with B11, B12 is 6.8-fold lower in “EC50 CE-SDS IgE” value: 0.0178 µM for the first, 0.00261 µM for the second.

The binders below were run against IgG1 (assay: cell-based or functional assay).

With B9 the “EC50 CE-SDS IgG1” value was 21.3 µM.
